Bridge positions count the residues as written; N and C are the ends. Ends that are not written are not given here. COCH2 = acetyl group that carries the bridge

The target of this experiment is T1, Recombinant Human FGFR2 alpha (IIIc) Fc Chimera Protein (Homo sapiens, UniProt P21802).
T1 construct: Fc (chimera); purchased R&D systems 712-FR-050
The experiment is described as follows: ELISA binding affinity of enzymatically synthesized peptide to FGFR. The settings on record: ELISA luminescence signal at 10 nmol/L peptide, SEQ ID NO: 47 at 10 nmol/L standardized to 1; enzyme synthesis product. The gist of the method: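 FGFR2 alpha (IIIc) Fc chimera (5 ng/well) was immobilized, and Myc-tagged peptide was bound 3 h at room temperature, then detected with anti-Myc antibody (2 h) and chemiluminescent substrate. Signal was corrected against FGFR-free wells. Score A–D was the luminescence at 10 nmol/L peptide, normalized to cyclic peptide SEQ ID NO: 47.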

T1 sequence (P21802 with tags, fused parts or gaps limits assumed): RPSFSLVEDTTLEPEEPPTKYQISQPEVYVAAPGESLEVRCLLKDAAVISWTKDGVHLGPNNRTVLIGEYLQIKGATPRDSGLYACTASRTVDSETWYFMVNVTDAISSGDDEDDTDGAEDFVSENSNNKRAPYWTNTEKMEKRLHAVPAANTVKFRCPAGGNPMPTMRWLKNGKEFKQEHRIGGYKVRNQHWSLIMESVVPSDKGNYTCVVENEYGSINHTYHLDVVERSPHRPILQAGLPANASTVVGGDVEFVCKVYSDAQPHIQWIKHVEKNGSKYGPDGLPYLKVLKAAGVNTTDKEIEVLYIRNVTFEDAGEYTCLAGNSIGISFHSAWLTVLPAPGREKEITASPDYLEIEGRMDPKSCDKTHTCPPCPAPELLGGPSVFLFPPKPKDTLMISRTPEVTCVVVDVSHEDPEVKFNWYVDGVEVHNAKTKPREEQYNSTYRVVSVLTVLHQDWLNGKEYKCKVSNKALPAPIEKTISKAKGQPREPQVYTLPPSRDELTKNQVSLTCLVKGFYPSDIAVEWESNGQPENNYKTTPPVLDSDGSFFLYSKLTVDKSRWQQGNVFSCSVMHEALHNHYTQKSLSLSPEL

For the substance “228 (YCEENYLDNEQYQYFIYFK(COCH2)Y; thioether 2-19 (inferred)) [compound 228]”, the “Evaluation result of binding affinity to FGFR” value (“Evaluation result” below) is listed as “A (0.7 or more)”.
Take “229 (YCEENYLDQEQYQYFIYFK(COCH2)Y; thioether 2-19 (inferred)) [compound 229]”: the “Evaluation result” value is given as “A (0.7 or more)”.
Then “230 (YCEENYLDSEQYQYFIYFK(COCH2)Y; thioether 2-19 (inferred)) [compound 230]”, with “A (0.7 or more)”; and “231 (YCEENYLDTEQYQYFIYFK(COCH2)Y; thioether 2-19 (inferred)) [compound 231]”, with “A (0.7 or more)”.
For “232 (YCEENYLDDEQYQYFIYFK(COCH2)Y; thioether 2-19 (inferred)) [compound 232]”, the “Evaluation result” value was “A (0.7 or more)”.
Then “233 (YCEENYLDEEQYQYFIYFK(COCH2)Y; thioether 2-19 (inferred)) [compound 233]”, with “A (0.7 or more)”; and “234 (YCEENYLDREQYQYFIYFK(COCH2)Y; thioether 2-19 (inferred)) [compound 234]”, with “A (0.7 or more)”.
With “235 (YCEENYLDHEQYQYFIYFK(COCH2)Y; thioether 2-19 (inferred)) [compound 235]”, the “Evaluation result” value is on record as “A (0.7 or more)”.
For “236 (YCEENYLDPGQYQYFIYFK(COCH2)Y; thioether 2-19 (inferred)) [compound 236]” the value was “C (0.1 or more and less than 0.5)”.
With “237 (YCEENYLDPPQYQYFIYFK(COCH2)Y; thioether 2-19 (inferred)) [compound 237]”, the “Evaluation result” value is recorded as “A (0.7 or more)”.
Take “238 (YCEENYLDPLQYQYFIYFK(COCH2)Y; thioether 2-19 (inferred)) [compound 238]”: the “Evaluation result” value is on record as “A (0.7 or more)”.
On to “239 (YCEENYLDPIQYQYFIYFK(COCH2)Y; thioether 2-19 (inferred)) [compound 239]”, for which the “Evaluation result” value is listed as “A (0.7 or more)”.
With “240 (YCEENYLDPVQYQYFIYFK(COCH2)Y; thioether 2-19 (inferred)) [compound 240]”, the “Evaluation result” value is on record as “A (0.7 or more)”.
For the substance “241 (YCEENYLDPFQYQYFIYFK(COCH2)Y; thioether 2-19 (inferred)) [compound 241]”, the “Evaluation result” value was “A (0.7 or more)”.
Then “242 (YCEENYLDPYQYQYFIYFK(COCH2)Y; thioether 2-19 (inferred)) [compound 242]”, with “A (0.7 or more)”; and “243 (YCEENYLDPWQYQYFIYFK(COCH2)Y; thioether 2-19 (inferred)) [compound 243]”, with “A (0.7 or more)”; and “244 (YCEENYLDPNQYQYFIYFK(COCH2)Y; thioether 2-19 (inferred)) [compound 244]”, with “A (0.7 or more)”.
As for “245 (YCEENYLDPQQYQYFIYFK(COCH2)Y; thioether 2-19 (inferred)) [compound 245]”, the “Evaluation result” value is “A (0.7 or more)”.
For “246 (YCEENYLDPSQYQYFIYFK(COCH2)Y; thioether 2-19 (inferred)) [compound 246]” the value was “A (0.7 or more)”.
Then “247 (YCEENYLDPTQYQYFIYFK(COCH2)Y; thioether 2-19 (inferred)) [compound 247]”, with “A (0.7 or more)”; and “248 (YCEENYLDPDQYQYFIYFK(COCH2)Y; thioether 2-19 (inferred)) [compound 248]”, with “A (0.7 or more)”.
For “249 (YCEENYLDPRQYQYFIYFK(COCH2)Y; thioether 2-19 (inferred)) [compound 249]” the value was “A (0.7 or more)”; for “250 (YCEENYLDPHQYQYFIYFK(COCH2)Y; thioether 2-19 (inferred)) [compound 250]”, “A (0.7 or more)”; for “251 (YCEENYLDPEHYQYFIYFK(COCH2)Y; thioether 2-19 (inferred)) [compound 251]”, “C (0.1 or more and less than 0.5)”.
For the substance “252 (YCEENYLDPEQLQYFIYFK(COCH2)Y; thioether 2-19 (inferred)) [compound 252]”, the “Evaluation result” value was “C (0.1 or more and less than 0.5)”.
Then “253 (YCEENYLDPEQIQYFIYFK(COCH2)Y; thioether 2-19 (inferred)) [compound 253]”, with “C (0.1 or more and less than 0.5)”; and “254 (YCEENYLDPEQFQYFIYFK(COCH2)Y; thioether 2-19 (inferred)) [compound 254]”, with “A (0.7 or more)”; and “255 (YCEENYLDPEQWQYFIYFK(COCH2)Y; thioether 2-19 (inferred)) [compound 255]”, with “A (0.7 or more)”.
On to “256 (YCEENYLDPEQHQYFIYFK(COCH2)Y; thioether 2-19 (inferred)) [compound 256]”, for which the “Evaluation result” value is listed as “A (0.7 or more)”.
In the case of “257 (YCEENYLDPEQYGYFIYFK(COCH2)Y; thioether 2-19 (inferred)) [compound 257]”, the “Evaluation result” value is given as “A (0.7 or more)”.
As for “258 (YCEENYLDPEQYLYFIYFK(COCH2)Y; thioether 2-19 (inferred)) [compound 258]”, the “Evaluation result” value was “A (0.7 or more)”.
Then “259 (YCEENYLDPEQYIYFIYFK(COCH2)Y; thioether 2-19 (inferred)) [compound 259]”, with “A (0.7 or more)”.
In the case of “260 (YCEENYLDPEQYVYFIYFK(COCH2)Y; thioether 2-19) [compound 260]”, the “Evaluation result” value is given as “A (0.7 or more)”.
Turning to “261 (YCEENYLDPEQYFYFIYFK(COCH2)Y; thioether 2-19) [compound 261]”, the “Evaluation result” value was “B (0.5 or more and less than 0.7)”.
For the substance “262 (YCEENYLDPEQYYYFIYFK(COCH2)Y; thioether 2-19) [compound 262]”, the “Evaluation result” value is reported as “A (0.7 or more)”.
For “263 (YCEENYLDPEQYWYFIYFK(COCH2)Y; thioether 2-19) [compound 263]” the value was “A (0.7 or more)”; for “264 (YCEENYLDPEQYNYFIYFK(COCH2)Y; thioether 2-19) [compound 264]”, “A (0.7 or more)”.
Regarding “265 (YCEENYLDPEQYSYFIYFK(COCH2)Y; thioether 2-19) [compound 265]”, the “Evaluation result” value is reported as “A (0.7 or more)”.
Then “266 (YCEENYLDPEQYTYFIYFK(COCH2)Y; thioether 2-19) [compound 266]”, with “A (0.7 or more)”; and “267 (YCEENYLDPEQYDYFIYFK(COCH2)Y; thioether 2-19) [compound 267]”, with “A (0.7 or more)”; and “268 (YCEENYLDPEQYEYFIYFK(COCH2)Y; thioether 2-19) [compound 268]”, with “A (0.7 or more)”.
Then “269 (YCEENYLDPEQYRYFIYFK(COCH2)Y; thioether 2-19) [compound 269]”, with “A (0.7 or more)”; and “270 (YCEENYLDPEQYHYFIYFK(COCH2)Y; thioether 2-19) [compound 270]”, with “A (0.7 or more)”; and “271 (YCEENYLDPEQYQIFIYFK(COCH2)Y; thioether 2-19) [compound 271]”, with “C (0.1 or more and less than 0.5)”.
For “272 (YCEENYLDPEQYQFFIYFK(COCH2)Y; thioether 2-19) [compound 272]” the value was “A (0.7 or more)”.
For “273 (YCEENYLDPEQYQNFIYFK(COCH2)Y; thioether 2-19) [compound 273]”, the “Evaluation result” value is “C (0.1 or more and less than 0.5)”.
For “274 (YCEENYLDPEQYQHFIYFK(COCH2)Y; thioether 2-19) [compound 274]” the value was “C (0.1 or more and less than 0.5)”.
Consider “275 (YCEENYLDPEQYQYLIYFK(COCH2)Y; thioether 2-19) [compound 275]”, for which the “Evaluation result” value is “A (0.7 or more)”.
For “276 (YCEENYLDPEQYQYYIYFK(COCH2)Y; thioether 2-19) [compound 276]” the value was “B (0.5 or more and less than 0.7)”; for “277 (YCEENYLDPEQYQYFGYFK(COCH2)Y; thioether 2-19) [compound 277]”, “C (0.1 or more and less than 0.5)”.
As to “278 (YCEENYLDPEQYQYFLYFK(COCH2)Y; thioether 2-19) [compound 278]”, the “Evaluation result” value is “A (0.7 or more)”.
With “279 (YCEENYLDPEQYQYFVYFK(COCH2)Y; thioether 2-19) [compound 279]”, the “Evaluation result” value is “A (0.7 or more)”.
Then “280 (YCEENYLDPEQYQYFFYFK(COCH2)Y; thioether 2-19) [compound 280]”, with “A (0.7 or more)”; and “281 (YCEENYLDPEQYQYFYYFK(COCH2)Y; thioether 2-19) [compound 281]”, with “A (0.7 or more)”.
With “282 (YCEENYLDPEQYQYFWYFK(COCH2)Y; thioether 2-19) [compound 282]”, the “Evaluation result” value is on record as “A (0.7 or more)”.
Then “283 (YCEENYLDPEQYQYFNYFK(COCH2)Y; thioether 2-19) [compound 283]”, with “A (0.7 or more)”.
